Test results reported in the supplement of paper PMC12764529.
± gives the half width of the 95% confidence interval.

Tests used:
[1] = folding stability dG unfold from trypsin proteolysis; higher = more stable
Outline: (§1)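 Mini-proteins designed to be under 80 residues and free of cysteine were carried in a PA-tagged cDNA display construct and digested with trypsin and with chymotrypsin. Each protease was applied at 11 threefold-diluted concentrations, alongside a no-protease condition, before sequencing. K50 came from Bayesian fitting of the sequencing counts, and unfolding free energy was obtained by comparing it with a sequence-predicted unfolded-state K50 and a shared folded-state K50, for each protease separately or for both together. Designs were retained only if their AlphaFold2 dimer inter-PAE exceeded 15.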

[2] = folding stability dG unfold from chymotrypsin proteolysis; higher = more stable
Outline: as §1

[3] = folding stability dG unfold (combined trypsin and chymotrypsin); higher = more stable
Outline: as §1

Row | Sequence | folding stability dG unfold [1] | folding stability dG unfold [2] | folding stability dG unfold [3]
1 | SAGGSAEEEVETVTLTVTVTVPPAPEVEVVSVEVERLPDGTLRVRAVVRLKDVPDRFVEVELTIRPSAGGSA [r15_627_TrROS_Hall] | 3.41 ± 0.12 kcal/mol | 2.95 ± 0.042 kcal/mol | 3.18 ± 0.16 kcal/mol
2 | SAGGSAEELAKELAEKEGVKEVKVTVIKNKNGKLVLKVENKETNKTYEIELPEGAEVVEEITLKVKSAGGSA [r2_74_TrROS_Hall] | 0.106 ± 0.086 kcal/mol | 1.23 ± 0.061 kcal/mol | 0.923 ± 0.1 kcal/mol
3 | SAGGSAEETIEIEIPLEDLKPRKDGKLTEEEIKERLRKLIEELTGKKPKEITVERDENGTLRITIRSAGGSA [r15_562_TrROS_Hall] | 1.46 ± 0.13 kcal/mol | 2.54 ± 0.18 kcal/mol | 2.2 ± 0.23 kcal/mol
4 | SAGGSAEIPPGAKLEIDEMSFDPGNGRIEMMFKIEDPDGEPLWQIRVSWEFNPENGKMKLDIEIMPSAGGSA [r15_1028_TrROS] | 2.51 ± 0.19 kcal/mol | 3.8 ± 0.12 kcal/mol | 3.49 ± 0.14 kcal/mol
5 | SAGGSAEITEIEIEEEGGRLRVRATVTNENGETFEFEAEIELPPPPPPEEVTLERDPETDEWKEVTSAGGSA [r15_335_TrROS_Hall] | 2.17 ± 0.06 kcal/mol | 2.39 ± 0.087 kcal/mol | 2.22 ± 0.12 kcal/mol
6 | SAGGSAEKKVLKVKVEVVSVEVNEDGTVTVTAKVTFEDGLELTVTVTFDKETGELTIEVELRPLPPSAGGSA [r15_401_TrROS_Hall] | 2.42 ± 0.22 kcal/mol | 3.48 ± 0.15 kcal/mol | 3.13 ± 0.15 kcal/mol
7 | SAGGSAEKPVRTLEITVTVPPGQPTPEELARALAEELGVEVTRVEVVRVERNEDGELTVTVRVEVKSAGGSA [r15_654_TrROS_Hall] | 3.2 ± 0.21 kcal/mol | 2.5 ± 0.14 kcal/mol | 2.99 ± 0.14 kcal/mol
8 | SAGGSAELPSLGAEITVTEDPNRNTYTVTVPLVAPDGAPVGTLTVPFSSLEEARAFLRAQGLGELLSAGGSA [r15_127_JUSTAS] | 2.59 ± 0.031 kcal/mol | 2.836 ± 0.01 kcal/mol | 2.773 ± 0.016 kcal/mol
9 | SAGGSAELVSVDVELEGRYLRVRARFRLPDGREVEVEVRFSLPGVPPAPPVFPYRDPETGELRLGLSAGGSA [r15_335_TrMRF] | 3.27 ± 0.056 kcal/mol | 3.614 ± 0.023 kcal/mol | 3.57 ± 0.14 kcal/mol
10 | SAGGSAEPPEVTVEVLSVEPTPDGYLVVERVVTTPDGVLVYRTVFRPPDGKPVGTDWALFPNPDALSAGGSA [r15_716_TrMRF] | 2.17 ± 0.23 kcal/mol | 3.53 ± 0.041 kcal/mol | 2.95 ± 0.12 kcal/mol
11 | SAGGSAEQTATIESVEYNEETGELTIRIRLENGEEVEITVKPDGTITITLPPGAKITEIEIERLPPSAGGSA [r15_959_TrROS_Hall] | 1.91 ± 0.15 kcal/mol | 2.3 ± 0.32 kcal/mol | 2.53 ± 0.35 kcal/mol
12 | SAGGSAESIPVDELVELAKKLGLDVTVTPLPETGLVRVEITFTTPDGSKVPATVLVHPDGRTTVFPSAGGSA [r15_1051_TrMRF] | 1.82 ± 0.038 kcal/mol | 2.208 ± 0.018 kcal/mol | 2.08 ± 0.032 kcal/mol
13 | SAGGSAFKGMPPEQVKRVIEIDHPNGKDIYIVRYKGPGHMMIFPPKEGKPIYIPMPLDEIKEFLLSSAGGSA [r15_810_TrROS] | 0.337 ± 0.054 kcal/mol | 0.672 ± 0.13 kcal/mol | 0.548 ± 0.094 kcal/mol
14 | SAGGSAFRVQTWDDGKPRKIPIGESLDDLKDQIDDNPNYPIYIEFPNGKPFHMPWSDIKNMIDQLKSAGGSA [r15_36_TrROS] | 0.172 ± 0.17 kcal/mol | -0.196 ± 0.47 kcal/mol | -0.0315 ± 0.28 kcal/mol
15 | SAGGSAGALLVRFNDPELVRELIEALPFDALVERDPDDPNVLLVTLFTDGPLEEAVRAVREALGLESAGGSA [r15_118_TrMRF] | 2.35 ± 0.039 kcal/mol | 3.25 ± 0.04 kcal/mol | 2.98 ± 0.086 kcal/mol
16 | SAGGSAGDLELIGVFPFTLPDGRRITVPIFRDPSTGERYLFAETEGEEEDLTPAAIETALAVLERESAGGSA [r15_529_TrMRF] | 1.87 ± 0.051 kcal/mol | 2.09 ± 0.037 kcal/mol | 2.05 ± 0.084 kcal/mol
17 | SAGGSAGGAEVVKVDPKPAGVTTVLERYPDGTLRLLKETEENGKLTVSEVETIPVPDISKPPLLSAGGSAGG [r6_836_JUSTAS] | -0.198 ± 0.075 kcal/mol | 0.164 ± 0.066 kcal/mol | 0.0779 ± 0.11 kcal/mol
18 | SAGGSAGGAFTVTLPDGRPVRVRLLGATFTFEVRIPPGVPDVVPGAKPDEVVKVTRVVLVVSLDSAGGSAGG [r6_907_TrMRF] | 2.82 ± 0.13 kcal/mol | 4.57 ± 0.096 kcal/mol | 4.16 ± 0.14 kcal/mol
